From paper PMC3197140

Target: ^15N labeled FLNA repeat 21

Question: MASKPEKRVASSVFITLAPPRRDVRRRRRRRRR [WTMigfilinR9 peptide] was tested. Which CBRM1/5 binding (αMβ2 activation) on human neutrophils treated with 50 µM peptide for 5 min at 37°C, flow cytometry did it give?
Answer: 2 fold
